{
  "source": "patent US20170298096A1",
  "about": "(CANIMGUIDE THERAPEUTICS, published 2017)",
  "binders": {"B1": {"name": "SEQ ID NO 302 (peptide)", "peptide": "KKLWTFFVKLSLFTER"}, "B2": {"name": "SEQ ID NO 346 (peptide)", "peptide": "KKLDTFFVKLMLFTER"}, "B3": {"name": "SEQ ID NO 356 (peptide)", "peptide": "KKLDTFFVKLSRFTER"}, "B4": {"name": "SEQ ID NO 369 (peptide)", "peptide": "KKLDTFFVKLSLPTER"}, "B5": {"name": "SEQ ID NO 355 (peptide)", "peptide": "KKLDTFFVKLSQFTER"}, "B6": {"name": "SEQ ID NO 341 (peptide)", "peptide": "KKLDTFFVKSSLFTER"}, "B7": {"name": "SEQ ID NO 343 (peptide)", "peptide": "KKLDTFFVKVSLFTER"}, "B8": {"name": "SEQ ID NO 312 (peptide)", "peptide": "KKLDYFFVKLSLFTER"}, "B9": {"name": "SEQ ID NO 320 (peptide)", "peptide": "KKLDTFLVKLSLFTER"}, "B10": {"name": "SEQ ID NO 337 (peptide)", "peptide": "KKLDTFFVKNSLFTER"}, "B11": {"name": "SEQ ID NO 324 (peptide)", "peptide": "KKLDTFTVKLSLFTER"}, "B12": {"name": "SEQ ID NO 344 (peptide)", "peptide": "KKLDTFFVKYSLFTER"}, "B13": {"name": "SEQ ID NO 333 (peptide)", "peptide": "KKLDTFFVKFSLFTER"}, "B14": {"name": "SEQ ID NO 325 (peptide)", "peptide": "KKLDTFVVKLSLFTER"}, "B15": {"name": "SEQ ID NO 326 (peptide)", "peptide": "KKLDTFFFKLSLFTER"}, "B16": {"name": "SEQ ID NO 332 (peptide)", "peptide": "KKLDTFFVKASLFTER"}, "B17": {"name": "SEQ ID NO 306 (peptide)", "peptide": "KKLDNFFVKLSLFTER"}, "B18": {"name": "SEQ ID NO 342 (peptide)", "peptide": "KKLDTFFVKTSLFTER"}, "B19": {"name": "SEQ ID NO 349 (peptide)", "peptide": "KKLDTFFVKLTLFTER"}, "B20": {"name": "SEQ ID NO 361 (peptide)", "peptide": "KKLDTFFVKLSLATER"}, "B21": {"name": "SEQ ID NO 319 (peptide)", "peptide": "KKLDTVFVKLSLFTER"}, "B22": {"name": "SEQ ID NO 308 (peptide)", "peptide": "KKLDQFFVKLSLFTER"}, "B23": {"name": "SEQ ID NO 310 (peptide)", "peptide": "KKLDSFFVKLSLFTER"}, "B24": {"name": "SEQ ID NO 316 (peptide)", "peptide": "KKLDTNFVKLSLFTER"}, "B25": {"name": "SEQ ID NO 359 (peptide)", "peptide": "KKLDTFFVKLSVFTER"}, "B26": {"name": "SEQ ID NO 307 (peptide)", "peptide": "KKLDPFFVKLSLFTER"}, "B27": {"name": "SEQ ID NO 357 (peptide)", "peptide": "KKLDTFFVKLSSFTER"}, "B28": {"name": "SEQ ID NO 363 (peptide)", "peptide": "KKLDTFFVKLSLGTER"}, "B29": {"name": "SEQ ID NO 358 (peptide)", "peptide": "KKLDTFFVKLSTFTER"}, "B30": {"name": "SEQ ID NO 370 (peptide)", "peptide": "KKLDTFFVKLSLQTER"}, "B31": {"name": "SEQ ID NO 339 (peptide)", "peptide": "KKLDTFFVKQSLFTER"}, "B32": {"name": "SEQ ID NO 360 (peptide)", "peptide": "KKLDTFFVKLSWFTER"}, "B33": {"name": "SEQ ID NO 347 (peptide)", "peptide": "KKLDTFFVKLNLFTER"}, "B34": {"name": "SEQ ID NO 330 (peptide)", "peptide": "KKLDTFFRKLSLFTER"}, "B35": {"name": "SEQ ID NO 311 (peptide)", "peptide": "KKLDWFFVKLSLFTER"}, "B36": {"name": "SEQ ID NO 352 (peptide)", "peptide": "KKLDTFFVKLSIFTER"}, "B37": {"name": "SEQ ID NO 327 (peptide)", "peptide": "KKLDTFFGKLSLFTER"}, "B38": {"name": "SEQ ID NO 365 (peptide)", "peptide": "KKLDTFFVKLSLITER"}, "B39": {"name": "SEQ ID NO 322 (peptide)", "peptide": "KKLDTFQVKLSLFTER"}, "B40": {"name": "SEQ ID NO 303 (peptide)", "peptide": "KKLYTFFVKLSLFTER"}, "B41": {"name": "SEQ ID NO 372 (peptide)", "peptide": "KKLDTFFVKLSLSTER"}, "B42": {"name": "SEQ ID NO 318 (peptide)", "peptide": "KKLDTTFVKLSLFTER"}, "B43": {"name": "SEQ ID NO 329 (peptide)", "peptide": "KKLDTFFPKLSLFTER"}, "B44": {"name": "SEQ ID NO 336 (peptide)", "peptide": "KKLDTFFVKMSLFTER"}, "B45": {"name": "SEQ ID NO 314 (peptide)", "peptide": "KKLDTIFVKLSLFTER"}, "B46": {"name": "SEQ ID NO 321 (peptide)", "peptide": "KKLDTFMVKLSLFTER"}, "B47": {"name": "SEQ ID NO 335 (peptide)", "peptide": "KKLDTFFVKISLFTER"}, "B48": {"name": "SEQ ID NO 331 (peptide)", "peptide": "KKLDTFFVRLSLFTER"}, "B49": {"name": "SEQ ID NO 328 (peptide)", "peptide": "KKLDTFFLKLSLFTER"}, "B50": {"name": "SEQ ID NO 348 (peptide)", "peptide": "KKLDTFFVKLQLFTER"}, "B51": {"name": "SEQ ID NO 323 (peptide)", "peptide": "KKLDTFSVKLSLFTER"}, "B52": {"name": "SEQ ID NO 353 (peptide)", "peptide": "KKLDTFFVKLSMFTER"}, "B53": {"name": "SEQ ID NO 367 (peptide)", "peptide": "KKLDTFFVKLSLMTER"}, "B54": {"name": "SEQ ID NO 313 (peptide)", "peptide": "KKLDTAFVKLSLFTER"}, "B55": {"name": "SEQ ID NO 368 (peptide)", "peptide": "KKLDTFFVKLSLNTER"}, "B56": {"name": "SEQ ID NO 338 (peptide)", "peptide": "KKLDTFFVKPSLFTER"}, "B57": {"name": "SEQ ID NO 315 (peptide)", "peptide": "KKLDTMFVKLSLFTER"}, "B58": {"name": "SEQ ID NO 345 (peptide)", "peptide": "KKLDTFFVKLHLFTER"}, "B59": {"name": "SEQ ID NO 362 (peptide)", "peptide": "KKLDTFFVKLSLCTER"}, "B60": {"name": "SEQ ID NO 305 (peptide)", "peptide": "KKLDMFFVKLSLFTER"}, "B61": {"name": "SEQ ID NO 304 (peptide)", "peptide": "KKLDCFFVKLSLFTER"}, "B62": {"name": "SEQ ID NO 364 (peptide)", "peptide": "KKLDTFFVKLSLHTER"}, "B63": {"name": "SEQ ID NO 340 (peptide)", "peptide": "KKLDTFFVKRSLFTER"}, "B64": {"name": "SEQ ID NO 371 (peptide)", "peptide": "KKLDTFFVKLSLRTER"}, "B65": {"name": "SEQ ID NO 334 (peptide)", "peptide": "KKLDTFFVKGSLFTER"}, "B66": {"name": "SEQ ID NO 366 (peptide)", "peptide": "KKLDTFFVKLSLLTER"}, "B67": {"name": "SEQ ID NO 350 (peptide)", "peptide": "KKLDTFFVKLSAFTER"}, "B68": {"name": "SEQ ID NO 309 (peptide)", "peptide": "KKLDRFFVKLSLFTER"}, "B69": {"name": "SEQ ID NO 354 (peptide)", "peptide": "KKLDTFFVKLSNFTER"}, "B70": {"name": "SEQ ID NO 317 (peptide)", "peptide": "KKLDTPFVKLSLFTER"}, "B71": {"name": "SEQ ID NO 351 (peptide)", "peptide": "KKLDTFFVKLSHFTER"}},
  "note": "No end group written: not given here.",
  "data": [
    {"target": "T1, His-tagged P3028 (human, also: His-tag, terminus and sequence not given here)", "T1 construct": "in solution at 0.5 ug/mL over the peptide cards; found with anti-His-tag antibody and rabbit anti-mouse peroxidase (rampo); also called PGE73; not shown: His-tag", "T1 peptide": "VFDEFKPLVEEPQNLIK", "experiment": "PEPSCAN chip ELISA, His-P3028 in solution;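 further: score is the raw OD at 405 nm from peroxidase colour with ABTS, imaged by CCD camera before and after staining, with wells showing air bubbles set to zero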", "units": {"RAMPO Score": "rampo score"}, "values": [
      {"binder": "B1", "RAMPO Score": 443},
      {"binder": "B2", "RAMPO Score": 744},
      {"binder": "B3", "RAMPO Score": 483},
      {"binder": "B4", "RAMPO Score": 696},
      {"binder": "B5", "RAMPO Score": 651},
      {"binder": "B6", "RAMPO Score": 351},
      {"binder": "B7", "RAMPO Score": 658},
      {"binder": "B8", "RAMPO Score": 425},
      {"binder": "B9", "RAMPO Score": 517},
      {"binder": "B10", "RAMPO Score": 365},
      {"binder": "B11", "RAMPO Score": 517},
      {"binder": "B12", "RAMPO Score": 382},
      {"binder": "B13", "RAMPO Score": 403},
      {"binder": "B14", "RAMPO Score": 527},
      {"binder": "B15", "RAMPO Score": 358},
      {"binder": "B16", "RAMPO Score": 426},
      {"binder": "B17", "RAMPO Score": 436},
      {"binder": "B18", "RAMPO Score": 399},
      {"binder": "B19", "RAMPO Score": 520},
      {"binder": "B20", "RAMPO Score": 525},
      {"binder": "B21", "RAMPO Score": 547},
      {"binder": "B22", "RAMPO Score": 535},
      {"binder": "B23", "RAMPO Score": 458},
      {"binder": "B24", "RAMPO Score": 446},
      {"binder": "B25", "RAMPO Score": 545},
      {"binder": "B26", "RAMPO Score": 427},
      {"binder": "B27", "RAMPO Score": 478},
      {"binder": "B28", "RAMPO Score": 531},
      {"binder": "B29", "RAMPO Score": 437},
      {"binder": "B30", "RAMPO Score": 1140},
      {"binder": "B31", "RAMPO Score": 470},
      {"binder": "B32", "RAMPO Score": 409},
      {"binder": "B33", "RAMPO Score": 451},
      {"binder": "B34", "RAMPO Score": 365},
      {"binder": "B35", "RAMPO Score": 418},
      {"binder": "B36", "RAMPO Score": 456},
      {"binder": "B37", "RAMPO Score": 379},
      {"binder": "B38", "RAMPO Score": 468},
      {"binder": "B39", "RAMPO Score": 511},
      {"binder": "B40", "RAMPO Score": 422},
      {"binder": "B41", "RAMPO Score": 635},
      {"binder": "B42", "RAMPO Score": 481},
      {"binder": "B43", "RAMPO Score": 456},
      {"binder": "B44", "RAMPO Score": 460},
      {"binder": "B45", "RAMPO Score": 466},
      {"binder": "B46", "RAMPO Score": 712},
      {"binder": "B47", "RAMPO Score": 415},
      {"binder": "B48", "RAMPO Score": 374},
      {"binder": "B49", "RAMPO Score": 411},
      {"binder": "B50", "RAMPO Score": 768},
      {"binder": "B51", "RAMPO Score": 700},
      {"binder": "B52", "RAMPO Score": 499},
      {"binder": "B53", "RAMPO Score": 1190},
      {"binder": "B54", "RAMPO Score": 575},
      {"binder": "B55", "RAMPO Score": 862},
      {"binder": "B56", "RAMPO Score": 436},
      {"binder": "B57", "RAMPO Score": 467},
      {"binder": "B58", "RAMPO Score": 535},
      {"binder": "B59", "RAMPO Score": 400},
      {"binder": "B60", "RAMPO Score": 475},
      {"binder": "B61", "RAMPO Score": 449},
      {"binder": "B62", "RAMPO Score": 1050},
      {"binder": "B63", "RAMPO Score": 439},
      {"binder": "B64", "RAMPO Score": 502},
      {"binder": "B65", "RAMPO Score": 495},
      {"binder": "B66", "RAMPO Score": 448},
      {"binder": "B67", "RAMPO Score": 462},
      {"binder": "B68", "RAMPO Score": 430},
      {"binder": "B69", "RAMPO Score": 462},
      {"binder": "B70", "RAMPO Score": 497},
      {"binder": "B71", "RAMPO Score": 460}
    ]}
  ]
}
